Among the data in patent US20160290999A1 (SYSMEX, published 2016) are Kd values, retold here.

No end group written: not given here.

Assay [1] has as its target T1, Human serum albumin (human, UniProt P02768 25-609).
T1 construct: Purchased protein used in solution; In the hydrothermal experiments it is heat-aggregated into an insoluble precipitate; also called HSA
Kind of assay: fluorescence titration of TMR-labelled peptide against HSA, Hill fit (as in Example 1). As for the experimental part: (§1) Each of the resulting mixtures was subjected to measurement with a spectrophotofluorometer [product name: F-7000, manufactured by Hitachi High-Technologies Corporation] and the fluorescence intensity with an excitation wavelength of 540 nm and a fluorescence wavelength of 580 nm (hereinafter, referred to as “fluorescence intensity A”) was measured.

Assay [2] has as its target T1, Human serum albumin. Nature of the assay: fluorescence titration of TMR-labelled peptide against HSA, Hill fit (Example 2, FIG. 6). As to the method:
as §1

Assay [3] concerns the target T1, Human serum albumin. Nature of the assay: Kd as classified from the fluorescence titration; told in Example 4 of the peptides of samples F and G.

B1: TMR-labeled ACTH (1-39) (peptide)
peptide: SYSMEHFRWGKPVGKKRRPVKVYPNAGENESAEAFPLEF
modifications: also: TMR label, site not given here
notes: The free text was followed; also called Adrenocorticotropic hormone (ACTH) (1-39)
Take B1: in the assay with Human serum albumin [1], binding was characterised by a dissociation constant (Kd) of 520 µM.

B2: TMR-labeled SA21 (peptide)
peptide: DDEWLCGWRPLCIDEILR
modifications: cysteine pairing not given here; also: TMR label, site not given here
notes: The free text was followed; also called TMR-SA21; TMR-labeled SA1
Regarding B2, the Kd with Human serum albumin [2] was under 500 µM.

With LVAASQAALGL (also: TMR label, site not given here) [TMR-labeled HSA 599-609 fragment], in the assay with Human serum albumin [3], the Kd was at least 500 µM.
